Data on one substance can be found in paper PMC7232412.

Assay [1] concerns the target HIV-1 Gag p6 (pGBT p6) (UniProt P04591). The assay is described as follows: yeast 2-hybrid assay. The conditions noted are these: parent: est. 1.0; read off a plot.
For assay [2], the target named is HIV-1 Gag p6 with ubiquitin fused to its C-terminus (pGBT p6-Ub), P04591;P0CG48. The assay is described as follows: yeast 2-hybrid assay. The conditions noted are these: parent: est. 1.0; read off a plot.

Turning to “human Tsg101 wild-type (pGAD-hTsg101) (from UniProt Q99816) Y43A”, the figures for the ratio to parent in assay [1] and in assay [2] were 1.4 and 1.5, respectively.
